# Measured values: article PMC11169713 (2024)
# B1: 28H6E11 Fab (anti-idiotype antibody) (Fab, V domains shown)
# VH: QVQLQQSGPEVVRPGVSVKISCKGSGYTFTDHAMHWVKQSHAKSLEWIGVFNTYNGDTNYNQKFEDKATMTIDKSSSTAYLELARLTSEDSAIYYCVRLGLLGFYALDYWGQGTSVTVSS
# VL: DVLMTQTPLSLPVSLGDQASISCRSSQSIVHSNGNTYLEWYLQKPGQSPKLLIYKVSNRFSGVPDRFSGSGSGTDFTLKISRVEAEDLGVYYCFQGSHVPLTFGAGTKLELK
# Columns and labels:
# Assay in all cases: SPR
# 56.a.09 mature = biological target: 56.a.09 mature
# MEDI8852 UCA = biological target: MEDI8852 UCA
# 56.a.09 UCA = biological target: 56.a.09 UCA
# MEDI8852 mature = biological target: MEDI8852 mature
binder,measurement,setting,value
B1,Kd,56.a.09 mature,496 nM
same,Kd,MEDI8852 UCA,0.943 nM
same,Kd,56.a.09 UCA,32500 nM
same,Kd,MEDI8852 mature,941 nM
